Experimental data from paper PMC3094755.
Where “and” joins values, the source holds several entries; their conditions need not be identical. Equal values may be shown once.

Molecular target: PARP-1 F1 (Homo sapiens) (UniProt P09874)
Experiment: fluorescence anisotropy
Details: 5'-phosphate; FA: 50 mM Tris-HCl pH 7, 150 uM ZnSO4, 4 mM DTT, 0-200 mM NaCl, 25 C, 10 nM DNA (mutants 25 nM DNA, 25 mM NaCl); EMSA: 50 mM Tris-HCl pH 7.4, 150 uM ZnSO4, 4 mM

Chain of PARP-1 F1 (Homo sapiens) (P09874 1-108): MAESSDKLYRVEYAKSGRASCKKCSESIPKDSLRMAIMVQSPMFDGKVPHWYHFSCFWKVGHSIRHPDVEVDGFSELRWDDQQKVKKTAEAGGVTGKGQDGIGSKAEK

Sequence: CGGTCGATCGTAAGATCGACCGGCGCTGGAGCTTGCTCCAGCGC [44-nt nicked dumbbell, 5'-phosphate, fluorescein-dT]
- Kd: 6.6 µM and 1.1 µM
